This note sets out measurements from patent US20190106487A1 (Sanofi, published 2019).

Where a chain is given by its changes, count along the chain named.

The EC50 is the concentration that produces a half-maximal response.

B1: P013.S.02.B.C05 (antibody, V domains shown)
VH: QSLEESGGRLVTPGTPLTLSCTASGFSLSTYYMSWVRQAPGKGLEWIGYMHVGGFPVYASWAKGRFTISKTSTTVDLKITSPTIEDTATYFCARDFGPPNWTLDLWGQGTLVTVSS
VL: DVVMTQTPASVEAAVGGTVTIKCQASQSISSYCSWYQQKPGQPPKLLIYRASTLESGVPSRFKGSGSGTEFTLTISDLESADAATYYCQSSYYDLLGNGFGGGTEVVVK
notes: rabbit monoclonal antibody; also called P013.A.00085.F10
B2: P013.S.02.B.G04 (antibody, V domains shown)
VH: QSLEESGGRLVTPGTPLTLTCTVSGFSLSRCAMIWVRQAPGKGLEWIGFIGRGGSTWYASWVNGRFTISKTSTTVDLKITSPTTEDTATYFCARDGDYSDYYTFDLWGQGTLVTVSS
VL: DVVMTQTPASVSERVGGTVTIKCQASQSIGSNLAWYQQKPGQPPKLLIYGASNLESGVPSRFSGSGSGTEFTLSISGVQSADAATYYCQCSGYDTTGVFPFGGGSEVVVK
notes: rabbit monoclonal antibody; also called P013.A.00015.A11
B3: P013.S.02.B.B01 (antibody, V domains shown)
VH: QSLEESGGRLVTPGTPLTLTCTVSGFSLSGYAMSWVRQAPGKGLEWIGIIYAGSGGTYYASWVKGRFTISKTSTTVDLKITSLTTEDTATYFCARAVPDDSAGKKLWGQGTLVTVSS
VL: DIVMTQTPASVEAAVGGTITINCQASENIYSSLAWYQQKPGQPPKLLIYDASTLASGVSSRFKGSGSGTQFTLTISGVQSDDAATYYCQSYYCSVSSSCGYGFGGGTEVVVK
notes: rabbit monoclonal antibody; also called P013.A.00088.A11
B4: P013.S.01.B.D02 (antibody, V domains shown)
VH: LEQSGGGAEGGLVKPGGSLELCCKASGFSLTTNYWICWVRQAPGKGLEWIGCIYANSVGSTYYASWVNGRFTLSRDIDQSTGCLQLNSLTAADTAMYYCARVDPGYSFDAFDPWGPGTLVTVSS
VL: ALVMTQTPSPVSAAVGGTVTINCQASEDIYSNLAWFQQKPGQPPKLLIYRASTLASGVPSRFSGSGSGTEFTLTISALQSDDAATYYCLGVRTYFNTLNNSFGGGTEVVVK
notes: rabbit monoclonal antibody; also called P013.A.00022.E06
B5: P013.S.01.B.D05 (antibody, V domains shown)
VH: EQSGGGAEGGLVKPGGSLELYCKASGFSLSSDAWICWVRQAPGKGLEWIGCIYAGSASNTYYATWVNGRFTLSRDIAQSTGCLQLNSLTAADTAMYYCARDRGYDDYGDITRLDLWGQGTLVTVSS
VL: B4 VL with M4L, A77G, R92Y, F95L, N96S, T97D, N99F, N100F, S101V
notes: rabbit monoclonal antibody; also called P013.A.00085.G03
B6: P013.S.01.B.G02 (antibody, V domains shown)
VH: QSVEESGGRLVTPGTPLTLTCTVSGFSLSSYYMSWVRQAPGKGLEWIGYIYAAGPITYYATWAKGRFTISKTSTTVDLKITSPTTEDTATYFCVRDGSGSGTYGYNGMDLWGPGTLVTVSS
VL: AYDMTQTPASVEAAVGGTVNIKCQASQSISNWLAWYQQKPGQRPKLLIYRASTLASGVSSRFKGSGSGTQFTLTISGVESADAATYYCQQGASTTDVDNVFGGGTEVVVK
notes: rabbit monoclonal antibody; also called P013.A.00085.B11
B7: P013.S.02.B.A01 (antibody, V domains shown)
VH: B6 VH
VL: B6 VL with N20T
notes: rabbit monoclonal antibody; also called P013.A.00087.A07
B8: P013.S.01.B.H03 (antibody, V domains shown)
VH: B6 VH
VL: B6 VL with R43P
notes: rabbit monoclonal antibody; also called P013.A.00045.A02
B9: P013.S.01.B.F02 (antibody, V domains shown)
VH: QEQLVESGGGLVQPEGSLTLTCTASGFSFSSNYWMCWVRQAPGKGLEWIACIYTGGSGVTYYASWAKGRFTLSKTSSTTVTLQVTSLTAADTATYFCARDLVVVTSFNLWGQGTLVTVSS
VL: ALMMTQTPSPVSAAVGGTVTINCQASEDIYSNLAWYQQKPGQPPKLLIYSASTLASGVPSRFSGSGSGTEFTLTISGVQSDDAATYYCLGVCTDISVDDVYNSFGGGTEVVVK
notes: rabbit monoclonal antibody; also called P013.A.00043.D08
B10: P013.S.01.B.F03 (antibody, V domains shown)
VH: LEQSGGGAEGGLVKPGGSLELCCKASGFSLGSSYWICWVRQAPGKGLEWIGCIYAGSSGITYYASWVSGRFTLSRDIDQSTGCLQLNSLTAADTAMYYCARDIYASTSGYDLWGQGTLVTVSS
VL: ALVMTQTPSPVSAAVGGTVTINCQASEDIYSNLAWFQQKPGQPPKLLIYQASTLASGVPSRFSGSGSGTEFTLTISGLQSDDAAAYYCLGVCTYIGADNTLYNTFGGGTEVVVK
notes: rabbit monoclonal antibody; also called P013.A.00025.F02

One test addresses T1, human IL-1RAcP on 293T/17-FR cells (human, UniProt Q9NPH3 21-570).
T1 sequence (looked up): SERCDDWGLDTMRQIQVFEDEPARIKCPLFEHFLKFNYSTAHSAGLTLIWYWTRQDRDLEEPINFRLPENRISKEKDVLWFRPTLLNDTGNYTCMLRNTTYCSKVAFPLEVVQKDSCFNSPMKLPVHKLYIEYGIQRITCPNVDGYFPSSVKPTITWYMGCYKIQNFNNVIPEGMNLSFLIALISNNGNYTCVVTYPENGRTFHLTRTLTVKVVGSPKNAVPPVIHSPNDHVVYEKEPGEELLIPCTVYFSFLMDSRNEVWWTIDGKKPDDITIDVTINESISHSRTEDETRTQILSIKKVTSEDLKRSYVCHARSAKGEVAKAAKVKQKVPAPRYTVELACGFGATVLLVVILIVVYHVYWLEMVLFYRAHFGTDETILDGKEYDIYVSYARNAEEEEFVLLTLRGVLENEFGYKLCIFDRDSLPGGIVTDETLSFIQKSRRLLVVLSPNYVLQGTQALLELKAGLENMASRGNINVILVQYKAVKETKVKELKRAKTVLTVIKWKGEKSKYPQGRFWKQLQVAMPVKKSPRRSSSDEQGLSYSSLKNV
Description: cell-based or functional assay.
As for B1, the “functional reporter gene assay (% inhibition), 0.04 µg/mL mAb” value is 7%; the “functional reporter gene assay (% inhibition), 0.2 µg/mL mAb” value came to 26%; the “functional reporter gene assay (% inhibition), 1 µg/mL mAb” value was found to be 35%; the “functional reporter gene assay (% inhibition), 5 µg/mL mAb” value came out at 52%. The “primary supernatant functional assay (% inh.), NF-kB luciferase reporter” value was found to be 66%.

For B2, the “functional reporter gene assay (% inhibition), 0.04 µg/mL mAb” value was -1%; the “functional reporter gene assay (% inhibition), 0.2 µg/mL mAb” value came to 0%; the “functional reporter gene assay (% inhibition), 1 µg/mL mAb” value was found to be 4%; the “functional reporter gene assay (% inhibition), 5 µg/mL mAb” value is -18%. Further, the “primary supernatant functional assay (% inh.), NF-kB luciferase reporter” value was 27%.

Take B3: the “functional reporter gene assay (% inhibition), 0.04 µg/mL mAb” value is 24%; the “functional reporter gene assay (% inhibition), 0.2 µg/mL mAb” value amounted to 39%; the “functional reporter gene assay (% inhibition), 1 µg/mL mAb” value was 75%; the “functional reporter gene assay (% inhibition), 5 µg/mL mAb” value is 94%. Besides, the “primary supernatant functional assay (% inh.), NF-kB luciferase reporter” value came to 95%.

With B4, the “functional reporter gene assay (% inhibition), 0.04 µg/mL mAb” value was 44%; the “functional reporter gene assay (% inhibition), 0.2 µg/mL mAb” value was 68%; the “functional reporter gene assay (% inhibition), 1 µg/mL mAb” value came out at 88%; the “functional reporter gene assay (% inhibition), 5 µg/mL mAb” value was determined as 92%. Besides, the “primary supernatant functional assay (% inh.), NF-kB luciferase reporter” value came out at 99%.

For B5, the “functional reporter gene assay (% inhibition), 0.04 µg/mL mAb” value was determined as 26%; the “functional reporter gene assay (% inhibition), 0.2 µg/mL mAb” value was 66%; the “functional reporter gene assay (% inhibition), 1 µg/mL mAb” value amounted to 77%; the “functional reporter gene assay (% inhibition), 5 µg/mL mAb” value is 62%. In addition, the “primary supernatant functional assay (% inh.), NF-kB luciferase reporter” value stood at 93%.

Take B6: the “functional reporter gene assay (% inhibition), 0.04 µg/mL mAb” value amounted to 43%; the “functional reporter gene assay (% inhibition), 0.2 µg/mL mAb” value stood at 52%; the “functional reporter gene assay (% inhibition), 1 µg/mL mAb” value worked out at 41%; the “functional reporter gene assay (% inhibition), 5 µg/mL mAb” value was determined as 72%. For the same molecule, the “primary supernatant functional assay (% inh.), NF-kB luciferase reporter” value turned out to be 71%.

As for B7, the “functional reporter gene assay (% inhibition), 0.04 µg/mL mAb” value worked out at 7%; the “functional reporter gene assay (% inhibition), 0.2 µg/mL mAb” value came to 45%; the “functional reporter gene assay (% inhibition), 1 µg/mL mAb” value turned out to be 67%; the “functional reporter gene assay (% inhibition), 5 µg/mL mAb” value was 87%. For the same molecule, the “primary supernatant functional assay (% inh.), NF-kB luciferase reporter” value came to 67%.

Consider B8, for which the “functional reporter gene assay (% inhibition), 0.04 µg/mL mAb” value was 28%; the “functional reporter gene assay (% inhibition), 0.2 µg/mL mAb” value is 49%; the “functional reporter gene assay (% inhibition), 1 µg/mL mAb” value is 59%; the “functional reporter gene assay (% inhibition), 5 µg/mL mAb” value amounted to 60%. Further, the “primary supernatant functional assay (% inh.), NF-kB luciferase reporter” value is 43%.

Regarding B9, the “functional reporter gene assay (% inhibition), 0.04 µg/mL mAb” value is 45%; the “functional reporter gene assay (% inhibition), 0.2 µg/mL mAb” value is 59%; the “functional reporter gene assay (% inhibition), 1 µg/mL mAb” value turned out to be 80%; the “functional reporter gene assay (% inhibition), 5 µg/mL mAb” value is 93%. The “primary supernatant functional assay (% inh.), NF-kB luciferase reporter” value was 76%.

With B10, the “functional reporter gene assay (% inhibition), 0.04 µg/mL mAb” value stood at 26%; the “functional reporter gene assay (% inhibition), 0.2 µg/mL mAb” value came to 59%; the “functional reporter gene assay (% inhibition), 1 µg/mL mAb” value amounted to 87%; the “functional reporter gene assay (% inhibition), 5 µg/mL mAb” value worked out at 94%. Also, the “primary supernatant functional assay (% inh.), NF-kB luciferase reporter” value came out at 102%.

The target of another test is T2, rhIL-1RAcP/Fc Chimera (human, UniProt Q9NPH3 21-359).
T2 construct: also called P013_03; P013-03
T2 sequence (looked up): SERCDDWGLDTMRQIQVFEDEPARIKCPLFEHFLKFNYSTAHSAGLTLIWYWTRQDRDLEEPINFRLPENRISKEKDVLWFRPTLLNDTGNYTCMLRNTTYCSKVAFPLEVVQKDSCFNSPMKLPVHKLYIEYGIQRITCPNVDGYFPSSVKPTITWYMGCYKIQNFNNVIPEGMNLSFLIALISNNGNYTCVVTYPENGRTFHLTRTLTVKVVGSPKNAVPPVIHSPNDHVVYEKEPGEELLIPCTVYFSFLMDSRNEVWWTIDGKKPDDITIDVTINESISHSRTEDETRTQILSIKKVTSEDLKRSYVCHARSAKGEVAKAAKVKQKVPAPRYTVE
Description: ELISA, recombinant purified mAb. Background: An ELISA detects its analyte on a solid surface through an enzyme-linked reagent.
Take B6: the EC50 was determined as 0.049 µg/mL.

Turning to B7, the EC50 is 0.073 µg/mL.

B8: the EC50 turned out to be 0.104 µg/mL.

In the case of B10, the EC50 worked out at 0.44 µg/mL.

The next test concerns the target T2, rhIL-1RAcP/Fc Chimera. Description: ELISA, primary supernatant, coated hu-IL-1RAcP-Fc. From the text: Microtiter plates were coated IL-1RACP and/or IL12Rβ1 protein (recombinant Fc chimeric conjugates of human IL-1RACP or IL12Rβ1). After a blocking process, specific antibodies from B-cell supernatants bind to the targets and are then detected by a POD-labeled anti-rabbit IgG antibody. The IL12Rβ1 binding was used as a counterscreen. IL-1RACP protein was tagged with a linker, huFc and His like the IL12Rβ1 protein. Antibodies which bind to the tag were positive in both assays, whereas antigen specific antibodies just bound to IL-1RACP and not to IL12Rβ1.
12.5 μL 0.5 μg/mL IL-1RACP protein in PBS was transferred to a microtiter plate, incubated and washed 3× with Wash Buffer. 90 μL Block Buffer was added to each well, incubated and washed. 12.5 μl Standard Antibody (rabbit mAb against IL-1RAcP, anti IL12Rbeta1 antibody: IL-12Rbeta1 antibody; GeneTex; Cat. No. GTX103917) or sample diluted in ELISA buffer was added, incubated and washed. 12.5 μl 1:5000 POD-Antibody (Anti-rabbit IgG, peroxidase-linked species-specific Fab2 fragment (from donkey) (ECL); assay dilution: 1:5000) in Elisa Buffer was added, incubated and washed. 15 μl TMB was added and 15 μl HCl was added after sufficient development. Absorbance (Optical Density O.D.) was read at 450 nm/620 nm.
On to B1, for which the “hu-IL1RaP ELISA (OD)” value was 3.2 OD.

Take B2: the “hu-IL1RaP ELISA (OD)” value turned out to be 2.9 OD.

In the case of B3, the “hu-IL1RaP ELISA (OD)” value stood at 3.6 OD.

Turning to B4, the “hu-IL1RaP ELISA (OD)” value is 4 OD.

In the case of B5, the “hu-IL1RaP ELISA (OD)” value is 3.4 OD.

In the case of B6, the “hu-IL1RaP ELISA (OD)” value stood at 3.7 OD.

For B7, the “hu-IL1RaP ELISA (OD)” value was 3.8 OD.

For the molecule B8, the “hu-IL1RaP ELISA (OD)” value was determined as 3.5 OD.

Turning to B9, the “hu-IL1RaP ELISA (OD)” value was determined as 3.4 OD.

Regarding B10, the “hu-IL1RaP ELISA (OD)” value stood at 3.4 OD.
